According to the supplement of paper PMC6757056:
± gives the standard deviation of the averaged measurements.

B1: library; a variant is named by its letters at N, in order (parent)
chain: GCUGUCACCGGUGUAUUACCCUAGUGGUCGACCGGUCUGAUGAGUCUNNNNNNAGACGAAACAGC

What was measured:
[1] = variants of: B1; test: FACS-Seq fitted mean relative fluorescence mCherry/BFP without ligand (log10 relative fluorescence); ligand: hypoxanthine (xanthine aptamer); higher = higher reporter protein expression; details: HEK293T, ligand present: no
Method in brief: (§1)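 With or without ligand for 48 h, enriched HEK293T libraries carrying a lentiviral ribozyme-switch mCherry reporter and EF1α-BFP were sorted into 6 mCherry/BFP bins. Bin genomic DNA was amplified by PCR, barcoded and sequenced on MiSeq. Fluorescence was taken from normal fits to the resulting bin counts. Each fitted mean of log10(mCherry/BFP) was scaled to five spiked-in control ribozymes.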

[2] = variants of: B1; test: normalized RNA/DNA level with ligand (relative to sTRSVctl = 100) (log10 (% of sTRSVctl)); ligand: hypoxanthine (xanthine aptamer); higher = less ribozyme self-cleavage, higher mRNA level; details: ligand concentration (+) RNA-Seq: 5 mM, HEK293T, reporter: mCherry (pCS4076), ligand present: yes
Protocol: (§2)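 Hammerhead (sTRSV) ribozyme switch libraries with a ligand aptamer grafted on stem I and a randomized N4-6 loop II, cloned into the 3' UTR of mCherry and transiently transfected into HEK293T cells; RNA-Seq 72 h post transfection with ligand added 1 h before transfection; RNA read count / plasmid DNA read count normalized to the non-cleaving sTRSVctl (x100), log10; sequences with >100 DNA reads. FACS-Seq: lentiviral library sorted into 6 bins after 48 h ligand, log-normal fit mean of mCherry/BFP scaled to controls. Printed sequences are partial switch sequences.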

[3] = variants of: B1; test: normalized RNA/DNA level without ligand (relative to sTRSVctl = 100) (log10 (% of sTRSVctl)); ligand: hypoxanthine (xanthine aptamer); higher = less ribozyme self-cleavage, higher mRNA level; details: HEK293T, reporter: mCherry (pCS4076), ligand present: no
Protocol: as §2

[4] = variants of: B1; test: FACS-Seq fitted mean relative fluorescence mCherry/BFP with ligand (log10 relative fluorescence); ligand: hypoxanthine (xanthine aptamer); ligand concentration (+) FACS-Seq: 5 mM; higher = higher reporter protein expression; details: HEK293T, ligand present: yes
Method in brief: as §1

Variant | FACS-Seq fitted mean (log10) [1] | normalized RNA/DNA level with ligand (log10) [2] | normalized RNA/DNA level without ligand (log10) [3] | FACS-Seq fitted mean (log10) [4]
AAGGGG | 0.115 ± 0.014 | 1.78 ± 0.031 | 1.203 ± 0.002 | 0.386 ± 0.1
GAGCGC | 0.507 ± 0.012 | 1.89 ± 0.026 | 1.55 ± 0.017 | 0.556 ± 0.09
GAGCGA | 0.291 ± 0.062 | 1.89 ± 0.03 | 1.497 ± 0.0043 | 0.54 ± 0.037
GAGCGG | -0.363 ± 0.054 | 1.64 ± 0.037 | 1.21 ± 0.073 | 0.0659 ± 0.25
AAGCUG | 0.17 ± 0.068 | 1.72 ± 0.032 | 1.23 ± 0.054 | 0.481 ± 0.046
AAGUUG | -0.243 ± 0.014 | 1.626 ± 0.013 | 1.12 ± 0.013 | 0.435 ± 0.052
AAGUUA | -0.098 ± 0.017 | 1.89 ± 0.02 | 1.613 ± 0.013 | 0.476 ± 0.07
GAGUGG | -0.253 ± 0.023 | 1.59 ± 0.12 | 1.13 ± 0.067 | 0.299 ± 0.042
GAGUGU | 0.458 ± 0.014 | 1.86 ± 0.036 | 1.6 ± 0.062 | 0.69 ± 0.053
GAGUGC | 0.0552 ± 0.013 | 1.876 ± 0.005 | 1.501 ± 0.013 | 0.361 ± 0.045
GAGUGA | 0.22 ± 0.019 | 1.87 ± 0.066 | 1.453 ± 0.012 | 0.468 ± 0.065
UACUUU | 0.0654 ± 0.07 | 1.97 ± 0.038 | 1.921 ± 0.0072 | 0.288 ± 0.041
AAGCGU | 0.27 ± 0.0081 | 1.89 ± 0.05 | 1.62 ± 0.035 | 0.579 ± 0.013
AAGCGA | 0.221 ± 0.0035 | 1.91 ± 0.052 | 1.43 ± 0.024 | 0.391 ± 0.04
AAGCGG | -0.261 ± 0.031 | 1.65 ± 0.026 | 1.2 ± 0.027 | 0.442 ± 0.054
CAGGGG | 0.166 ± 0.0056 | 1.75 ± 0.036 | 1.23 ± 0.06 | 0.48135 ± 0.00032
UACUGU | 0.399 ± 0.032 | 1.95 ± 0.066 | 1.67 ± 0.011 | 0.638 ± 0.036
AAGUGG | 0.227 ± 0.067 | 1.57 ± 0.1 | 1.093 ± 0.0029 | 0.765 ± 0.065
AAGUGU | 0.111 ± 0.029 | 1.89 ± 0.046 | 1.571 ± 0.015 | 0.229 ± 0.011
AAGUGA | -0.0239 ± 0.018 | 1.81 ± 0.02 | 1.47 ± 0.019 | 0.0676 ± 0.035
GAGACG | 0.287 ± 0.0096 | 1.749 ± 0.015 | 1.25 ± 0.055 | 0.807 ± 0.067
GAGACU | -0.451 ± 0.03 | 1.96 ± 0.047 | 1.83 ± 0.031 | -0.205 ± 0.035
GAGACA | 0.3113 ± 0.00099 | 1.905 ± 0.0057 | 1.68 ± 0.029 | 0.548 ± 0.014
GAGUCA | 0.644 ± 0.03 | 1.906 ± 0.014 | 1.74 ± 0.056 | 0.707 ± 0.032

Variant | FACS-Seq fitted mean (log10) [1] | normalized RNA/DNA level with ligand (log10) [2] | normalized RNA/DNA level without ligand (log10) [3] | FACS-Seq fitted mean (log10) [4]
CACUUC | -0.745 ± 0.014 | 1.884 ± 0.015 | 1.93 ± 0.066 | -0.484 ± 0.033
CACUUU | 0.525 ± 0.016 | 1.89 ± 0.036 | 1.847 ± 0.0042 | 0.491 ± 0.011
AAGGUA | 0.0361 ± 0.0026 | 1.767 ± 0.012 | 1.62 ± 0.021 | 0.162 ± 0.035
AAGGUG | -0.0635 ± 0.037 | 1.666 ± 0.0026 | 1.22 ± 0.024 | 0.37 ± 0.077
AAGGUU | 0.941 ± 0.099 | 1.93 ± 0.021 | 1.7849 ± 0.0012 | 0.771 ± 0.19
CAGAAC | 0.442 ± 0.066 | 1.884 ± 0.0072 | 1.73 ± 0.039 | 0.407 ± 0.016
CAGAAA | 0.22 ± 0.05 | 1.874 ± 0.00091 | 1.58 ± 0.062 | 0.32 ± 0.027
GAGAGC | 0.164 ± 0.036 | 1.8 ± 0.033 | 1.27 ± 0.072 | 0.494 ± 0.031
GAGAGA | 0.257 ± 0.028 | 1.81 ± 0.02 | 1.34 ± 0.042 | 0.585 ± 0.043
GAGAGG | 0.00193 ± 0.027 | 1.45 ± 0.017 | 1.01 ± 0.1 | 0.644 ± 0.032
AAGAAU | 0.521 ± 0.035 | 1.906 ± 0.0038 | 1.65 ± 0.018 | 0.5797 ± 0.0012
AAGAAA | 0.272 ± 0.028 | 1.91 ± 0.029 | 1.605 ± 0.01 | 0.598 ± 0.015
AAGAAG | -0.35 ± 0.015 | 1.545 ± 0.013 | 1.04 ± 0.028 | 0.459 ± 0.029
CAGCAU | 0.36 ± 0.085 | 1.947 ± 0.0067 | 1.71 ± 0.029 | 0.642 ± 0.028
AAGUAG | -0.0595 ± 0.042 | 1.593 ± 0.013 | 1.1 ± 0.048 | 0.568 ± 0.023
AAGUAA | 0.279 ± 0.049 | 1.86 ± 0.036 | 1.601 ± 0.012 | 0.457 ± 0.048
AAGUAC | 0.425 ± 0.075 | 1.89 ± 0.065 | 1.647 ± 0.015 | 0.673 ± 0.064
AAGUAU | 0.434 ± 0.12 | 1.895 ± 0.011 | 1.68 ± 0.019 | 0.301 ± 0.0055
UAGAUG | -0.00441 ± 0.085 | 1.9 ± 0.081 | 1.615 ± 0.0023 | 0.344 ± 0.03
GAGGAG | 0.288 ± 0.028 | 1.65 ± 0.042 | 1.17 ± 0.068 | 0.643 ± 0.013
GAGGAA | 0.318 ± 0.036 | 1.88 ± 0.032 | 1.54 ± 0.026 | 0.581 ± 0.073
GAGGAC | 0.178 ± 0.038 | 1.91 ± 0.041 | 1.6478 ± 0.00029 | 0.308 ± 0.1
UAGUGA | 0.153 ± 0.015 | 1.88 ± 0.033 | 1.57 ± 0.041 | 0.438 ± 0.039
UAGUGG | 0.242 ± 0.04 | 1.861 ± 0.015 | 1.41 ± 0.019 | 0.511 ± 0.035

Variant | FACS-Seq fitted mean (log10) [1] | normalized RNA/DNA level with ligand (log10) [2] | normalized RNA/DNA level without ligand (log10) [3] | FACS-Seq fitted mean (log10) [4]
UAGUGU | 0.0263 ± 0.029 | 1.9 ± 0.065 | 1.45 ± 0.063 | 0.449 ± 0.12
UAGGCC | 0.378 ± 0.066 | 2.002 ± 0.0047 | 1.954 ± 0.0025 | 0.564 ± 0.03
GAGUAA | 0.154 ± 0.061 | 1.878 ± 0.015 | 1.54 ± 0.023 | 0.427 ± 0.056
GAGUAC | 0.301 ± 0.14 | 1.907 ± 0.019 | 1.71 ± 0.041 | 0.51 ± 0.013
GAGUAG | -0.0875 ± 0.065 | 1.57 ± 0.033 | 1.13 ± 0.05 | 0.421 ± 0.051
GAGUAU | 0.3631 ± 0.0016 | 1.913 ± 0.0071 | 1.69 ± 0.021 | 0.472 ± 0.017
AACUUG | 0.597 ± 0.037 | 1.87 ± 0.027 | 1.54 ± 0.03 | 0.726 ± 0.1
AACUUU | 0.233 ± 0.078 | 1.92 ± 0.038 | 1.9 ± 0.058 | 0.348 ± 0.087
AACUUA | 0.394 ± 0.02 | 1.9 ± 0.021 | 1.857 ± 0.013 | 0.581 ± 0.02
CAGUAU | 0.355 ± 0.032 | 1.92 ± 0.031 | 1.61 ± 0.062 | 0.629 ± 0.094
CAGUAG | 0.475 ± 0.064 | 1.91 ± 0.11 | 1.57 ± 0.026 | 0.586 ± 0.0075
CACUGG | 0.504 ± 0.03 | 1.9 ± 0.019 | 1.43 ± 0.16 | 0.709 ± 0.016
CAGAGG | 0.273 ± 0.0028 | 1.813 ± 0.0092 | 1.21 ± 0.06 | 0.702 ± 0.048
CAGAGA | 0.37782 ± 0.00012 | 1.892 ± 0.0089 | 1.659 ± 0.0052 | 0.696 ± 0.03
GAGCCA | -0.0202 ± 0.12 | 1.93 ± 0.066 | 1.76 ± 0.018 | 0.234 ± 0.1
UAGUAG | 0.218 ± 0.026 | 1.86 ± 0.04 | 1.49 ± 0.058 | 0.441 ± 0.097
AAGGCG | 0.0654 ± 0.029 | 1.77 ± 0.08 | 1.24 ± 0.032 | 0.526 ± 0.018
UAGGAU | 0.683 ± 0.097 | 1.94 ± 0.027 | 1.66 ± 0.021 | 0.628 ± 0.013
UAGGAA | 0.348 ± 0.033 | 1.88 ± 0.031 | 1.64 ± 0.018 | 0.483 ± 0.056
CAGCUC | 0.219 ± 0.029 | 2.03 ± 0.022 | 1.972 ± 0.014 | 0.115 ± 0.03
CAGGUA | -0.0109 ± 0.015 | 1.757 ± 0.016 | 1.57 ± 0.014 | 0.148 ± 0.04
AAGAGU | 0.323 ± 0.065 | 1.81 ± 0.025 | 1.4 ± 0.047 | 0.664 ± 0.051
AAGAGA | 0.1774 ± 0.00084 | 1.8 ± 0.047 | 1.25 ± 0.055 | 0.598 ± 0.033
AAGAGG | -0.185 ± 0.01 | 1.43 ± 0.017 | 1.065 ± 0.0061 | 0.478 ± 0.048
